Data on one substance can be found in publication doi:10.1101/2020.05.11.088153.

Values joined by “and” are separate entries in the source; they are usually repeats but may differ in a detail not shown here. Equal entries are not always repeated.

For assay [1], the target named is βPFO_(Aβ(1-42)) tetramer (membrane-associated β-sheet pore forming tetramer of Aβ(1-42)) (UniProt P05067). Description: SEC.
Assay [2] shares this target. Description: native MS.
The target is the same in assay [3]. Description: ITC. For orientation: In ITC the heat of successive injections is recorded.

A word on the stoichiometry N: it is the number of molecules, sites or subunits per partner or assembly. A word on the Kd: it is the constant that tells how readily two partners part at equilibrium. A lower Kd goes with a tighter complex. In assay [1], “somatostatin-14 (from UniProt P61278 103-116) (peptide)” gave an increase of the area under the tetramer peak of 20%. The stoichiometry N in assay [2] is 1 and 2. Also, in assay [3], the Kd was found to be 23 µM and the stoichiometry N was found to be 2.
